Substrate in this data set: C[C@]12CC[C@@H]3c4ccc(O)cc4CC[C@H]3[C@@H]1CC[C@@H]2O[C@@H]1O[C@H](C(=O)O)[C@@H](O)[C@H](O)[C@H]1O
Put plainly: TP_TRANSPORTER: uptake in membrane vesicles from MRP7-expressing HEK293 cells. In kind it is functional, cell membranes. As to conditions: Membrane vesicle.

This note sets out measurements from ChEMBL document CHEMBL2074568, “Characterization of the transport properties of human multidrug resistance protein 7 (MRP7, ABCC10)” (Mol Pharmacol, 2003).

By Km is commonly meant the substrate concentration at which the rate is half of its maximum.

B1: ATP-binding cassette sub-family C member 10 (Homo sapiens), Q5T3U5 (protein)
chain: MERLLAQLCGSSAAWPLPLWEGDTTGHCFTQLVLSALPHALLAVLSACYLGTPRSPDYILPCSPGWRLRLAASFLLSVFPLLDLLPVALPPGAGPGPIGLEVLAGCVAAVAWISHSLALWVLAHSPHGHSRGPLALALVALLPAPALVLTVLWHCQRGTLLPPLLPGPMARLCLLILQLAALLAYALGWAAPGGPREPWAQEPLLPEDQEPEVAEDGESWLSRFSYAWLAPLLARGACGELRQPQDICRLPHRLQPTYLARVFQAHWQEGARLWRALYGAFGRCYLALGLLKLVGTMLGFSGPLLLSLLVGFLEEGQEPLSHGLLYALGLAGGAVLGAVLQNQYGYEVYKVTLQARGAVLNILYCKALQLGPSRPPTGEALNLLGTDSERLLNFAGSFHEAWGLPLQLAITLYLLYQQVGVAFVGGLILALLLVPVNKVIATRIMASNQEMLQHKDARVKLVTELLSGIRVIKFCGWEQALGARVEACRARELGRLRVIKYLDAACVYLWAALPVVISIVIFITYVLMGHQLTATKVFTALALVRMLILPLNNFPWVINGLLEAKVSLDRIQLFLDLPNHNPQAYYSPDPPAEPSTVLELHGALFSWDPVGTSLETFISHLEVKKGMLVGIVGKVGCGKSSLLAAIAGELHRLRGHVAVRGLSKGFGLATQEPWIQFATIRDNILFGKTFDAQLYKEVLEACALNDDLSILPAGDQTEVGEKGVTLSGGQRARIALARAVYQEKELYLLDDPLAAVDADVANHLLHRCILGMLSYTTRLLCTHRTEYLERADAVLLMEAGRLIRAGPPSEILPLVQAVPKAWAENGQESDSATAQSVQNPEKTKEGLEEEQSTSGRLLQEESKKEGAVALHVYQAYWKAVGQGLALAILFSLLLMQATRNAADWWLSHWISQLKAENSSQEAQPSTSPASMGLFSPQLLLFSPGNLYIPVFPLPKAAPNGSSDIRFYLTVYATIAGVNSLCTLLRAVLFAAGTLQAAATLHRRLLHRVLMAPVTFFNATPTGRILNRFSSDVACADDSLPFILNILLANAAGLLGLLAVLGSGLPWLLLLLPPLSIMYYHVQRHYRASSRELRRLGSLTLSPLYSHLADTLAGLSVLRATGATYRFEEENLRLLELNQRCQFATSATMQWLDIRLQLMGAAVVSAIAGIALVQHQQGLANPGLVGLSLSYALSLTGLLSGLVSSFTQTEAMLVSVERLEEYTCDLPQEPQGQPLQLGTGWLTQGGVEFQDVVLAYRPGLPNALDGVTFCVQPGEKLGIVGRTGSGKSSLLLVLFRLLEPSSGRVLLDGVDTSQLELAQLRSQLAIIPQEPFLFSGTVRENLDPQGLHKDRALWQALKQCHLSEVITSMGGLDGELGEGGRSLSLGQRQLLCLARALLTDAKILCIDEATASVDQKTDQLLQQTICKRFANKTVLTIAHRLNTILNSDRVLVLQAGRVVELDSPATLRNQPHSLFQQLLQSSQQGVPASLGGP
Consider B1, for which the Michaelis constant (Km) stood at 57.8 µM.
